From publication PMC5599985

Legend:
[1] = biological target: biotinylated synthetic peptide containing the C-terminal 16 amino-acid residues of harmonin-a1 including the PBM; assay: SPR
[2] = biological target: PDZ2 domain of harmonin-a1 (amino acids 197-308); assay: NMR titration
[3] = biological target: NTD-PDZ1 supramodule of harmonin-a1; assay: NMR titration

Work on “NTD-PDZ1 supramodule of harmonin-a1 (domain or fragment)” yielded a Kd [1] of 61 µM.

Substance “synthetic peptide of the C-terminal 16 residues of harmonin-a1 (amino acids 533-548) including the PBM” has a Kd [2] of 375 µM and a Kd [3] of 51 µM.
